Test results taken from the supplement of paper PMC9732359.
± gives the uncertainty stated by the source.

experiment: protein stability index of a GFP-peptide fusion (yeast GPS) (PSI 1-4); higher = more stable; sorted into four equal gates, so the index is relative within each strain; conditions: san1∆
In short: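 Each library plasmid carries Cherry plus GFP with a tiled 17-residue yeast protein peptide fused downstream, and the pooled library was carried in yeast. Mid-log cultures in leucine-free medium were sorted into four equal gates by GFP/Cherry ratio. Reads from Illumina sequencing of PCR-amplified plasmids from each gate were assigned to strains by barcodes. Per peptide, the protein stability index was computed as the summed products of gate read frequency and gate number.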

Sequence	protein stability index
RRSKQLINLAKTRVGSV [RPC82]	2.95 ± 0.049
RRVNQAIALLTIGAREA [RPS5]	2.6 ± 0.24

same assay, conditions: ubr1∆

Sequence	protein stability index
QQPQTNTAPGLGNTVST [YGR119C/NUP57]	3.06 ± 0.058
QQQIIKIRITLTSTKVK [RPS20]	2.71 ± 0.043
QQQQDLQQQQQVVTTVA [SNF6]	1.54 ± 0.092
QQQQQQQQQQQHIYPSS [GAL11]	2.811 ± 0.018
QQSTDADEDDEDAKYVI [RPT1]	3.8 ± 0.14
QQVEGKLSQMILDKIFY [RPN6]	2.94 ± 0.062
QREAAAEYAQLLAKRLS [RPS6A]	2.11 ± 0.046
QRKKQSDVLRFLQRVRV [RPL15A]	1.56 ± 0.099
QRLIFAGKQLEDGRTLS [RPS31]	2.27 ± 0.12
QSLGLDDLQKFNGIENQ [ISW2]	2.69 ± 0.043
QSQLNVTLSQLVSVTST [MED8]	1.3 ± 0.019
QSSESFDDSDITKFALF [YML103C/NUP188]	2.46 ± 0.075
QSSLDVAGLEDKFRKAC [SIR3]	3.06 ± 0.21
QSSLSKVDIPLEVVQYI [NUT2]	2.29 ± 0.071
QTAVTCESCSTILCTPT [RPS27A]	1.82 ± 0.04
QTKEIKTERVEDQKVVD [RPL6B]	3.53 ± 0.076
QTKENKRCVGVILGDAN [RPN8]	2.73 ± 0.04
QTPAEKHAFMGTLKKDL [RPL3]	2.96 ± 0.093
QTWSYLSLYSTDLENSS [ECM29]	2.76 ± 0.049
QVIVDIFSVHGNTVVDG [YCG1]	2.34 ± 0.035
QVLVTTNQDGLKFVKVR [RPB2]	1.33 ± 0.11
QVRNQVFMLDTKRLGTP [RGR1]	2.89 ± 0.17
QVSEVDPGRYNKVCRIE [RPB8]	2.93 ± 0.06
QWIKFLLHTLYLRPASA [SSN8]	1.72 ± 0.035
QWSIEIVLLDDEGKEIP [TAF14]	2.75 ± 0.068

Sequence	protein stability index
QYEHLIKGIREYEEWQK [YDL116W/NUP84]	2.62 ± 0.083
QYTQRLSKLEKALDRHE [SRP68]	2.66 ± 0.037
RAAKLAAPENEKPAPVR [RPS15]	3.36 ± 0.082
RAASVGSLKLIELLCGL [NAS6]	1.83 ± 0.063
RADTMDFKTDVDEPMTS [YJL039C/NUP192]	3.3 ± 0.066
RAGIIIAKLSVIPIRRG [RPS2]	2.25 ± 0.072
RAGVSQVLNRYTYSSTL [RPB2]	2.76 ± 0.036
RAIDSLIQKGYLQRGDD [CDC53]	2.06 ± 0.077
RALFETKLNLHCVIEDD [RRI1]	2.29 ± 0.1
RALKVRNAQAQREAAAE [RPS6A]	2.94 ± 0.13
RARLKGKEGRIRGNLMG [RPO21]	2.96 ± 0.081
RCNDNLMRSCFYLMVSS [YJL039C/NUP192]	1.1 ± 0.038
RCYQPFELFDNKTAHLS [SNU114]	2.24 ± 0.041
RDALRNIKNTNEEATPI [RRP6]	2.94 ± 0.064
RDDEPKLYQTEPSGIYS [PRE6]	3.18 ± 0.046
RDIEKITSLYALIRRDF [CDC53]	1.75 ± 0.021
RDREPKEPVALIETVRQ [RPN2]	3.34 ± 0.071
REDEFGSIPSLTTQFVT [YDL088C/ASM4]	3.2 ± 0.067
REDMPFTAEGIVPDLII [RPB2]	2.79 ± 0.11
REGRHSGYGKRKGTREA [RPL19A]	3.52 ± 0.25
REILCYSKDAKEIYYTP [FAS2]	2.71 ± 0.019
RELLVEGYGLRDVMCTD [RPO31]	2.95 ± 0.056
RERDITSLFHKFILSGF [RRI2]	2.09 ± 0.049
RERQVNEKLADLGLEKE [RPC53]	3.2 ± 0.24
RFMRFLADRDEFIQDSA [ECM29]	2.26 ± 0.029

Sequence	protein stability index
RFPETMDETQTRAKIGG [RPO21]	3.42 ± 0.13
RGFIKSEGSGSSLVQKG [RPC53]	3.14 ± 0.057
RGFKVGLVCADTFRAGA [SRP54]	2.23 ± 0.11
RGIPRLSEDELRELDVE [SMC4]	3.57 ± 0.11
RGMLGLLEPPAKELQGI [RPO31]	3.23 ± 0.16
RGNKVNKQIEILTDLVN [ITC1]	2.97 ± 0.13
RGYFITQEEVELPLEDF [RPB5]	3.14 ± 0.086
RHFGMGPHKGKAPRILS [RPL18A]	2.73 ± 0.1
RHHRKTEKEEDAELMAD [ISW2]	3.32 ± 0.089
RHLPMYTEFIDSFIEKI [ITC1]	3 ± 0.066
RIAVLHQKTKTLASLSI [YGL172W/NUP49]	2.75 ± 0.066
RIDAFNALEHKYFTESD [SSN3]	3.05 ± 0.052
RIIRKKIFIAVVWYQRL [RRI2]	1.25 ± 0.034
RILQQLKLDKIIHVLTT [RGR1]	2.22 ± 0.073
RKASCIWLLSYIQYLGH [ECM29]	1.96 ± 0.036
RKCETQKQWDDIAFVLN [YCS4]	3.13 ± 0.078
RKCQFRTPDSISVNSSS [POP1]	2.37 ± 0.062
RKEPPATVEECVKLTVR [PRE6]	1.43 ± 0.055
RKFERARGRRRSKGFKV [RPL18A]	3.15 ± 0.059
RKFHELNDHIDDFEVNV [GRR1]	3.08 ± 0.073
RKHHKKGITEEVAKKRS [RPL24A]	3.02 ± 0.092
RKHKRVSPNAAPRQEIS [YAR002W/NUP60]	2.71 ± 0.063
RKKARTFDSSWNWAKQS [FAS2]	2.95 ± 0.074
RKRAHSLVSTQSSSSTR [REC8]	2.92 ± 0.068
RLIDLSGCENITDKTIE [GRR1]	2.88 ± 0.093

Sequence	protein stability index
RLKFGHRLIATHTNLER [SNF2]	2.5 ± 0.045
RLRTLCRDSDDHKRFIV [DIS3]	2.95 ± 0.048
RMFEKNVMLNIYPRTVI [SKI6]	2.24 ± 0.094
RMHLAPASKQGYLITPP [SSN2]	1.36 ± 0.13
RMRIFASNEVIAKSRYW [RPL20A]	2.53 ± 0.035
RNAEFKVSKNSTSFKNP [YMR153W/NUP53]	2.46 ± 0.076
RNQVQTENVAQARIILN [YGR119C/NUP57]	2.78 ± 0.042
RNVEQKLNELDELILEA [NNF1]	3.4 ± 0.046
RPFEGLFVISTEISPMA [RRP45]	2.86 ± 0.037
RPGRIDRKIEFPPPSVA [RPT6]	3.25 ± 0.048
RPHQSRESLIMLLEEQL [MED7]	2.12 ± 0.054
RPNRRGPRNTEEKGWVP [RPS2]	3.66 ± 0.079
RPQKLRASLVPGTVLIL [RPL6A]	2.45 ± 0.081
RQKARTDAHTPLARNYI [RPR2]	2.86 ± 0.042
RQNKVQHQRIVAFVCSP [RPN10]	1.42 ± 0.12
RQPSLHRLSILSHYAKI [RPO31]	2.13 ± 0.063
RRGAHGSELSSKIRKIH [SIR3]	2.54 ± 0.063
RRHRNPDLQFIVISLKN [SMC1]	2.13 ± 0.027
RRKKILNEIELDNLKLK [GRR1]	2.87 ± 0.068
RRLHDENLMVQRTCLMT [YCS4]	2.24 ± 0.047
RRNLRYGDRMKLAKNLQ [RPO31]	3.44 ± 0.067
RRQAVDVSPLRRVNQAI [RPS5]	2.75 ± 0.083
RRRKGISTGGFMSNDGP [SNU114]	1.33 ± 0.063
RRSKQLINLAKTRVGSV [RPC82]	3.25 ± 0.044
RRVNQAIALLTIGAREA [RPS5]	3.36 ± 0.22
